{
  "source": "patent US9433687B2",
  "about": "“Anti-Notch3 antibodies and antibody-drug conjugates” (Pfizer Inc., priority 2012, dated 2016)",
  "molecules": {"B1": {"name": "hu28 VH1.0/VL1.0: humanized r28 variant VH1.0/VL1.0, anti-Notch3 antibody (VH SEQ ID NO: 13, VL SEQ ID NO: 25) (antibody, V domains shown)", "VH": "EVQLVESGGGLVQPGGSLRLSCAASGFTFRDYGMTWVRQAPGKGLEWVAYISSGSNYIYYAEAVKGRFTISRDNAKNSLYLQMNSLRAEDTAVYYCARRGPFVLDAWGQGTLVTVSS", "VL": "DIQMTQSPSSLSASVGDRVTITCKASQSINRYLHWYQQKPGKAPKLLIYNANGLQTGVPSRFSGSGSGTDFTLTISSLQPEDFATYYCLQHNTWPDTFGGGTKVEIK"}, "B2": {"name": "ch75: rat-human chimeric anti-Notch3 antibody 75, rat variable regions fused with human IgG1 and human kappa (antibody, V domains shown)", "VH": "QVKLLQSGAALVKPGASVKMSCKASGYAFTDYWVTWVKQSHGKSLEWIGEISPNSGGTNFNEKFKGKATLTVDKSTSTAYMELSRLTSEDSAIYYCTRGEIRYNWFAYWGQGTLVTVSS", "VL": "NIVMTQSPKSMSISVGDRVTMNCKASQNVGNNIAWYQQKPGQSPKLLIYYASNRYTGVPDRFTGGGYGTDFTLTINSMQAEDAAFYYCQRLYNSPFTFGSGTKLEIK"}},
  "key": {"[1]": {"test": "Thermal stability by differential scanning calorimetry (DSC)", "assay_type": "physicochemical", "conditions": "0.3 mg/ml in PBS", "method": "There is a positive correlation between the thermal stability of a protein or protein domain with the overall stability of the protein or protein domain. A higher melting point of a protein or protein domain often provides improved manufacturability and longer shelf life. Differential scanning calorimetry (DSC) was used to assess the thermal stability of hu28 and hu75 versus ch28 and ch75, respectively. Protein samples were diluted in PBS to 0.3 mg/ml in a volume of 250 μl. The corresponding formulation buffer blank was used for the reference sample. Both samples were thoroughly degassed using a MicroCal ThermoVac Sample Degassing and Thermostat (Microcal, Inc., Northampton, Mass.) set to 8° C. Samples were dispensed into the appropriate cells of a MicroCal VP-DSC Capillary Cell MicroCalorimter (MicroCal, Inc., Northampton, Mass.). Samples were equilibrated for 4 minutes at 15° C. and then scanned up to 100° C. at a rate of 100° C. per hour. A filtering period of 20 seconds was selected. Raw data was baseline corrected and the protein concentration was normalized. Origin Software (OriginLab Corporation, Northampton, Mass.) was used to fit the data to an MN2-State Model with an appropriate number of transitions."}, "human Notch2 NRR-Fc": {"target": "T1, human Notch2 NRR-Fc (Homo sapiens, UniProt Q04721)", "T1 construct": "Expression constructs encoding human Notch1 and Notch2 NRR regions, fused with human IgG1 Fc fragments; made in house; host or cells: CHO-PACE cells", "T1 sequence (Q04721 1425-1677 limits assumed)": "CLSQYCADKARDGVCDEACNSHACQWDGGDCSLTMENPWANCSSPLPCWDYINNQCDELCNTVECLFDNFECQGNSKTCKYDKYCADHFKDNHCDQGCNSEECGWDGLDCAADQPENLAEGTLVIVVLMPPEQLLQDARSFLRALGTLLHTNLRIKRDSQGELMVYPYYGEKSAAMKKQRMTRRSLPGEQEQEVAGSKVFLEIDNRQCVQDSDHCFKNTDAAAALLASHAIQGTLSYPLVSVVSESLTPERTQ", "test": "Binding to Notch2 NRR-Fc", "conditions": "N/B = non-binding", "source_text": "(§1) Other members of the Notch receptor family play important roles in biological processes. For example, a Notch1 or Notch2 deficiency leads to embryonic death in mouse models. In contrast, a Notch4 deficiency results in no detectable phenotype in mouse models. The closest homologues of the Notch3 NRR region are Notch1 and Notch2 (˜50% homology), and Notch4 is a more distant homologue (˜30% homology). Cross-reactivity of anti-Notch3 antibodies to other members of the Notch family, especially Notch1 and 2, may lead to undesired effects in patients. Therefore, the potential cross-reactivity of r28 and hu28, along with r75 and hu75 to other Notch family members were assessed.\n(§2) Expression constructs encoding human Notch1 and Notch2 NRR regions, fused with human IgG1 Fc fragments were stably introduced into CHO-PACE cells. Conditioned media from these cells expressing NRR-Fc fusions were collected. Human Notch2 NRR-Fc and human Notch1 NRR-Fc were purified by protein A affinity followed by size exclusion chromatography (SEC). Purified preparations were dialysed into TBS with 1 mM CaCl2 and analyzed on analytical SEC to be >99% in purity."}, "human Notch1 NRR-Fc": {"target": "T2, human Notch1 NRR-Fc (Homo sapiens, UniProt P46531)", "T2 construct": "Expression constructs encoding human Notch1 and Notch2 NRR regions, fused with human IgG1 Fc fragments; made in house; host or cells: CHO-PACE cells", "T2 sequence (P46531 1446-1733 limits assumed)": "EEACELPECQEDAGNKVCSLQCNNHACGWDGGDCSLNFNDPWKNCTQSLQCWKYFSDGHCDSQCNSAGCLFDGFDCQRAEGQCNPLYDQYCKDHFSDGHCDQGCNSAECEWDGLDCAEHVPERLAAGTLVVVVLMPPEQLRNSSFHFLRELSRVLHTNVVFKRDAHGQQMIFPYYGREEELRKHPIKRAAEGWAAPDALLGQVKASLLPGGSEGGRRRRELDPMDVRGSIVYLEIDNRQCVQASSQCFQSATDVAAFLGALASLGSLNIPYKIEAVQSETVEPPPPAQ", "test": "Binding to Notch1 NRR-Fc", "conditions": "N/B = non-binding", "source_text": "as §1, §2"}, "[2]": {"target": "T3, human Notch3 NRR recombinant protein (Homo sapiens, UniProt Q9UM47)", "T3 construct": "made in house", "T3 sequence (Q9UM47 with tags, fused parts or gaps)": "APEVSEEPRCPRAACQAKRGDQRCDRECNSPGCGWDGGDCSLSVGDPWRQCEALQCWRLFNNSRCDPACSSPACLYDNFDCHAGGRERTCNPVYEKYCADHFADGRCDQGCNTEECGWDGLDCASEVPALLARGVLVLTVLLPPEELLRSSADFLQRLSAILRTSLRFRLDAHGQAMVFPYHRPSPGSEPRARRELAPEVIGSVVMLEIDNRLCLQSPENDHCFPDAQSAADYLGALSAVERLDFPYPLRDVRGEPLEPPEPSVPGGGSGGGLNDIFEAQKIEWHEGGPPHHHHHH", "test": "Surface plasmon resonance (Biacore) kinetic analysis", "assay_type": "binding", "conditions": "antibody captured; 1:1 Langmuir model", "method": "The kinetic constants of the anti-Notch3 NRR interactions were determined by surface plasmon resonance (Biacore® T100, Biacore Inc., Piscataway, N.J.). Flow cells of a CM5 chip were immobilized with approximately 10,000 response units (RU) of anti-human IgG-Fc (Biacore®) in 10 mM Glycine, pH 5.0 at 10 μl/min for 600 seconds. 10 μg/ml of anti-Notch3 antibodies ch28 and hu28, and ch75 and hu75 were diluted in TBS with 1 mM CaCl2 were captured at 10 μl/min. Association of four concentrations of human Notch3 NRR recombinant protein (from 3.7-100 nM) and a zero concentration (running buffer) at 100 μl/min were recorded for 3 minutes in TBS with 1 mM CaCl2. Dissociation of the complexes was measured for 10 minutes. The surface of the chip was regenerated by injecting 3M MgCl2 with 3 mM EGTA for 60 seconds at 10 μl/min. Curves obtained after subtraction of the reference and buffer signals were fitted to a 1:1 Langmuir binding model with Biacore® T100 Evaluation Software (Biacore®)."}},
  "data": [
    {"molecule": "B1", "values": [
      {"measurement": "Tm ± Standard Deviation, CH2", "setting": "[1]", "result": "72.63 ± 0.03", "unit": "°C"},
      {"measurement": "Tm ± Standard Deviation, CH3", "setting": "[1]", "result": "83.45 ± 0.17", "unit": "°C"},
      {"measurement": "Tm ± Standard Deviation, Fab", "setting": "[1]", "result": "83.45 ± 0.17", "unit": "°C"},
      {"measurement": "Binding to Notch2 NRR-Fc", "setting": "human Notch2 NRR-Fc", "result": "N/B"},
      {"measurement": "Binding to Notch1 NRR-Fc", "setting": "human Notch1 NRR-Fc", "result": "N/B"},
      {"measurement": "ka", "setting": "[2]", "result": 386000, "unit": "M⁻¹ s⁻¹"},
      {"measurement": "kd", "setting": "[2]", "result": 0.000347, "unit": "s⁻¹"}
    ]},
    {"molecule": "B2", "values": [
      {"measurement": "Tm ± Standard Deviation, CH2", "setting": "[1]", "result": "73.32 ± 0.01", "unit": "°C"},
      {"measurement": "Tm ± Standard Deviation, CH3", "setting": "[1]", "result": "84.59 ± 0.03", "unit": "°C"},
      {"measurement": "Tm ± Standard Deviation, Fab", "setting": "[1]", "result": "73.32 ± 0.01", "unit": "°C"},
      {"measurement": "Binding to Notch2 NRR-Fc", "setting": "human Notch2 NRR-Fc", "result": "N/B"},
      {"measurement": "Binding to Notch1 NRR-Fc", "setting": "human Notch1 NRR-Fc", "result": "N/B"},
      {"measurement": "ka", "setting": "[2]", "result": 57000, "unit": "M⁻¹ s⁻¹"},
      {"measurement": "kd", "setting": "[2]", "result": 0.000992, "unit": "s⁻¹"}
    ]}
  ]
}
